Target: F-actin (filamentous actin) of the Actin Binding Protein Biochem Kit (BK013, Cytoskeleton) (UniProt P60709)
Assay: co-sedimentation; F-actin spin-down assay with the Actin Binding Protein Biochem Kit (BK013, Cytoskeleton), according to manufacturer instructions; ultracentrifugation, SDS-PAGE, Coomassie staining, signals quantified

percent detected in the pellet with F-actin: 37%
Substance: cyclin A2-GST (glutathione S-transferase) (from UniProt P20248 1-432) (natural protein)

Source: article PMC4899731
